Measurements from US20190201542A1 (AbbVie / Abbott, published 2019).
Substitutions are numbered along the chain they refer to.

T1: human DLL3 (human, UniProt Q9NYJ7 27-492, limits assumed)
T1 construct: also called hDLL3; DLL3 protein
T1 sequence: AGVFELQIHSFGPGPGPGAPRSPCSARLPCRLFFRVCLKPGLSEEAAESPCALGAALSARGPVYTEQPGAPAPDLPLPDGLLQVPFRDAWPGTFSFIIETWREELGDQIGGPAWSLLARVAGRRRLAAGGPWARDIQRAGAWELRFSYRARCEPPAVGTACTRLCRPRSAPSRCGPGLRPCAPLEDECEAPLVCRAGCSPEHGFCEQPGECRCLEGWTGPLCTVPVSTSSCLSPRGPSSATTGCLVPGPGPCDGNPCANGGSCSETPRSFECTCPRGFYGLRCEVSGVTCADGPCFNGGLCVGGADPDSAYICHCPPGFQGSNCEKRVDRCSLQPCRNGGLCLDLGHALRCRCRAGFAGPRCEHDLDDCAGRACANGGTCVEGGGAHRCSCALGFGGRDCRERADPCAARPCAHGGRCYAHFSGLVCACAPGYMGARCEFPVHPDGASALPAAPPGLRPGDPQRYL

B1: SC16.134 (antibody, V domains shown)
VH: EVQLQQSGPDLVKPGASVKISCKASGYSFTGYYMHWVKQSHGKRLEWIGRVNPNNGGTNYNQKFKGKAILTVDKSSSTAYMELRSLTSEDSAVYYCARGSYDNAEGWGQGTLVTVSA
VL: DIVLTQSPASLAVSLGQRATISCKASQSVDHAGDSYMNWYQQKPGQPPKLLIYAASNLESGIPARFSGSGSGTDFTLNIHPVEEEDAATYYCQQSNEDPYTFGGGTKLEIK
notes: murine mAb
B2: SC16.124 (antibody, V domains shown)
VH: EVQLQQSGPELVKPGASVKMSCKASGYTFTSYVMHWVKQKPGQGLEWIGYINPYNDGTKYNEKFKGKATLTSDKSSSTAYMELSSLTSEDSAVYYCARGALYYGNYLGYFDVWGAGTTVTVSS
VL: DIQMTQSPASQSASLGESVTITCLASQTIGTWLAWYQQKPGKSPQLLISAATSLADGVPSRFSGSGSGTKFSFKISSLQAEDFVSYYCQQLYSTPWTFGGGTKLEIK
notes: murine mAb
B3: SC16.132 (antibody, V domains shown)
VH: QVQLKESGPGLVAPSQSLSITCTVSGFSLTDYGVSWIRQPPGKGLEWLGVVWGGGSTYYNSALKSRLSITKDNSKSQVFLKMNSLQTDDTAMYYCAKQRGQYGAYWGQGTLVTVSA
VL: B2 VL with S49Y
notes: murine mAb
B4: SC16.138 (antibody, V domains shown)
VH: B3 VH with T70S
VL: B2 VL with S49Y, A50S
notes: murine mAb
B5: SC16.129 (antibody, V domains shown)
VH: B3 VH with V51I, T70S, K81E, M82L, M92I, Q98H, R99Y, Q101H, G103A
VL: B2 VL with S49Y, W96Y
notes: murine mAb
B6: SC16.126 (antibody, V domains shown)
VH: QVQMKESGPGLVAPSQSLSITCTVSGSSLTNYGVHWVRQPPGKGLEWLGVIWAGGSTNYNSALMSRLSISKDNSKSQVFLKMNSLQTDDTAMYYCARDWEGWFAYWGQGTLVTVSA
VL: DIQMNQSPSSLSASLGDTITITCHASQNINVWLSWYQQKPGNIPKLLIYKASNLHTGVPSRFSGSGSGTGFTLTISSLQPEDIATYYCQQGQSYPFTFGSGTKLEIK
notes: murine mAb
B7: SC16.131 (antibody, V domains shown)
VH: QVQLKESGPGLVAPSQSLSITCTVSGFSLTNYGVHWVRQPPGKGLEWLGVIWAGGITNYNSALMSRLSISEDNSKSQVFLKMNSLQTDDTAMYYCARNLGPYAMDYWGQGTSVTVSS
VL: B6 VL with A25V, Y49Q
notes: murine mAb
B8: SC16.149 (antibody, V domains shown)
VH: B6 VH with M4L, T23A, S27F, N31S, Y32F, N60Y, K71I
VL: B6 VL with N53H, F62L, K103T
notes: murine mAb
B9: SC16.140 (antibody, V domains shown)
VH: QVQLQQSGPELVRPGASVKMSCKASGYTFTSYWMHWVKQRPGQGLEWIGMIDPSNSETRLNQKFKDKATLNVDKSSNTAYMQLSSLTSEDSAVYYCAVMDYYFDYWGQGTTLTVSS
VL: DIVLTQSLASLAVSLGQRATISCRASKSVSTSGYSYMHWYQQKPGQPPKLLIYLASNLESGVPARFSGSGSGTDFTLNIHPVEDEDAATYYCQHSRELPFTFGGGTKLEIK
notes: murine mAb
B10: SC16.123 (antibody, V domains shown)
VH: QVALKESGPGILQPSQTLSLTCSFSGFSLSTSGMGVGWIRQPSGKGLEWLAHIWWDDVKRYNPALKSRLTISKDTSSSQVFLKIASVDTADTATYYCARMEDYGSSSYFDFWGHGTTLTVSS
VL: QIVLTQSPAIMSASLGERVTMTCTASSSVSSSYLHWYQQKPGSSPKLWIYSTSNLASGVPARFSGSGSGTSYSLTISSMETEDAATYYCHQYHRSPFTFGSGTKLEIK
notes: murine mAb
B11: SC16.11 (antibody, V domains shown)
VH: QIQLVQSGPELKKPGETVKISCKASGYTFTDYSMHWVKQAPGKGLKWMGWINTETVEPTYADDFMGRFAFSLETSASTAFLQINNLENEDTATYFCARFGSYAMDYWGQGTSVTVSS
VL: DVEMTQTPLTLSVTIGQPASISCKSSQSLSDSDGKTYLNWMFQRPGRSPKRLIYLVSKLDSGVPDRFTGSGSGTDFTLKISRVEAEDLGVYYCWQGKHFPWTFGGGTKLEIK
notes: murine mAb
B12: SC16.130 (antibody, V domains shown)
VH: EVQLQQSGPELVKPGASVKMSCKASGYTFTSYVMHWVKQKPGQGLEWIGYINPYNDGTEYNEKFKGKATLTSDKSSSTAYMELSSLTSEDSAVYYCARGVYDGYSYFDYWGQGTTLTVSS
VL: DIQLTQSPASLSASVGETVTITCRASGSIHNYLAWYQQKQGKSPQLLVYNAKTLVDGVPSRFSGSGSGTQYSLKINSLQPEDFGYYYCQHFWTTPWTFGGGTKLEIK
notes: murine mAb
B13: SC16.136 (antibody, V domains shown)
VH: EVQLQQSGPELVKPGASVKMSCKASGYTFTSYVMHWVKQKPGQGLEWIGYINPYNDGTKYNEKFKGKATLTSDKSSSTAYMELSSLTSEDSAVYYCARDRSGYEDYYGMDYWGQGTSVTVSS
VL: B12 VL with L4M, S28N, Q45H, V55A, Y85S, T93S
notes: murine mAb
B14: SC16.122 (antibody, V domains shown)
VH: EVQLVESGGGLVKPGGSLKLSCAASGFTFSDYYMFWVRQTPEKRLEWVATISDGGSYTYFPDSVKGRFTISRDNAQNNLYLQMSSLKSEDTAMYYCARAGTLYAMDYWGQGTSVTVSS
VL: DIVMTQSQKFMSTSVGDRVSVTCKASQNVGTNVAWYQQKPGQSPKVLIYSASYRYSGVPDRFTGSGSGTDFTLTISNVQSEDLAEFFCQQYNSYPLTFGGGTKLEIK
notes: murine mAb
B15: SC16.143 (antibody, V domains shown)
VH: QVQLQQSGPELVKPGASVRISCKASGYTFTSYYIHWVKQRPGQGLEWIGWIYPGNGNTKYNEKFKGKATLTADKSSSTAYMQISSLTSEDSAVYFCARERWLLLWFAYWGQGTLVTVSA
VL: DVLMTQTPLSLPVSLGDQASISCRSSQSIVHSNGNTYLEWYLQKPGQSPKLLIYKVSNRFSGVPDRFSGSGSGTDFTLKISRVEAEDLGVYYCFQGSHVPLTFGAGTKLELK
notes: murine mAb
B16: SC16.137 (antibody, V domains shown)
VH: EVQLVESGGDLVKPGGSLKLSCAASGFTFSSYGMSWVRQTPDKRLEWVATISSGGSYTYYPDSVKGRFTISRDNAKNTLYLQMSSLKSEDTAMYYCARRRADAMDYWGQGTSVTVSS
VL: QIVLTQSPAIMSASLGEEITLTCSASSSVSYMHWYQQKSGTSPKLLIYSTSNLASGVPSRFSGSGSGTFYSLTISSVEAEDAADYYCHQWSSYHTFGGGTKLEIKR
notes: murine mAb
B17: SC16.133 (antibody, V domains shown)
VH: QVQLKESGPGLVAPSQSLSITCTVSGFSLTNYAVHWVRQSPGKGLEWLGVIWSDGSTDYNAAFISRLSISKDNSKSQVFFKMNSLQADDTAMYYCARKKGGWFPWFAYWGQGTLVTVSA
VL: SIVMTQTPKFLLVSAGDRVTITCKASQSVSNDVAWYQQKPGQSPKLLIYCASNRYTGVPDRFTGSGYGTDFTFTISTVQAEDLAVYFCQQDYSSPLTFGAGTKLELK
notes: murine mAb
B18: SC16.144 (antibody, V domains shown)
VH: QIQLVQSGPELKKPGETVKISCKASGYTFTNYGMNWVKQAPGKGLKWVGWINTYTGEPTYADDFKGRFAFSLETSASTAYLQIDNLKNEDTATYFCARVGDYVGFDYWGQGTTLTVSS
VL: B17 VL with A34G, C50Y, T56N, L96W, A100G, L106I
notes: murine mAb
B19: SC16.121 (antibody, V domains shown)
VH: EVQLVESGGGLVQPKGSLKLSCAASGFTFNTYAMNWVRQAPGKGLEWVARIRIKSNNYATYYADSVKDRFTISRDDSQNMLYLQMNNLKTEDTAVYYCVRQGYSYDWGPWFAYWGQGTLVTVSA
VL: QIVLTQSPAIMSASPGEKVTITCSASSSVSYMHWFQQKPGTSPKLWIYSTSNLASGVPARFSGSGSGTSYSLTISRMEAEDAATYYCQQRSSYPPTFGGGTKLEIK
notes: murine mAb
B20: SC16.135 (antibody, V domains shown)
VH: QVQLQQSGAELVRPGTSVKVSCKASGYAFTNYLIEWVKQRPGQGLEWIGVINPGSGGTNSNEKFKAKATLTADKSSSTAYMQLSSLTSADSAVYFCARSDYDYAFYAMDYWGQGTSVTVSS
VL: DIKMTQSPSSMYASLGERVTITCKASQDINRYLSWFQQKPGKSPKTLIYRANRLVDGVPSRFSGSGSGQDYSLTISSLEYEDMGIYYCLQYDEFPFTFGSGTKLEIK
notes: murine mAb
B21: SC16.141 (antibody, V domains shown)
VH: QVQLKQSGPGLVAPSQSLFITCTVSGFSLTSYEINWVRQPPGKGLEWLGVIWTGGSTNYNSALISRLSISKDNSKSLVFLKMNSLQTDDTAIYYCVRGVYAMDYWGQGTSVTVSS
VL: B20 VL with R31S
notes: murine mAb

The binders below were run against T1, human DLL3 (assay: screen on immobilized hDLL3 or h293-hDLL3 cells).
In short: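 Solid-phase ELISA on DLL3-His (0.5 μg/ml coating), developed with HRP anti-mouse IgG and TMB and read at OD 450, was one screen for supernatants of single-cell hybridomas from human DLL3-immunized mice taken after 10 days in culture. Flow-cytometry binding counted as positive only above the control.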

Binding result, binds:
B1
B2
B3
B4
B5
B6
B7
B8
B9
B10
B11
B12
B13
B14
B15
B16
B17
B18
B19
B20
B21
